The text below walks through data of paper PMC3192311.

Where “and” joins values, the source holds several entries; their conditions need not be identical. Identical values can stand only once.

Experiment [1] has as its target Latent Membrane Protein 1 D150A, full length (Epstein-Barr virus) (UniProt P03230).
The target is the same in experiment [2]. The source holds these as a separate data set.
The target in experiment [3] is LMP-1 TM5 D150A synthetic peptide (Epstein-Barr virus). The experiment in a line: AUC.
The target in experiment [4] is LMP-1 transmembrane helix 1 synthetic peptide (TM1) (Epstein-Barr virus). The experiment in a line: AUC.

For the substance “Latent Membrane Protein 1 D150A, full length (from UniProt P03230 1-386) (natural protein)”, in experiment [1], the p65 nuclear translocation in HEp2 cells, % of exp + cells with nuc p65 (TR > 1) is 38%. The substance further returned an NFκB luciferase reporter assay in HEp2 cells, luciferase against empty vector in experiment [2] of 1.2 times.
For orientation: stoichiometry N means a count of units in the complex or per binding partner. Turning to LMP-1 TM5 D150A synthetic peptide, the stoichiometry N in experiment [3] is 2.
Consider “LMP-1 transmembrane helix 1 synthetic peptide (TM1)”, for which the stoichiometry N in experiment [4] is 2 and 4.
